Assay results from publication PMC7504384, “Insight into the Folding and Dimerization Mechanisms of the N-Terminal Domain from Human TDP-43” (International Journal of Molecular Sciences, 2020).

Experiments:
[1] = target: the molecule itself; experiment: dynamic light scattering; 0.5 mg/mL (58.7 µM) NTD in 5 mM sodium phosphate buffer, 50 mM NaCl, 1 mM DTT, pH 7.4, 25 °C, no urea; hydrodynamic diameter compared with values calculated for monomer and dimer
[2] = target: the molecule itself; experiment: SEC; analytical gel filtration, Superdex 200 Increase 10/300 GL, 4 °C, 5 mM phosphate buffer, 50 mM NaCl, pH 7.4, without DTT; 100 µL of 0.5 mg/mL (58.7 µM) NTD loaded; masses from a calibration curve; also run with 150 mM NaCl without DTT

B1: N-terminal domain of human TDP-43 (NTD_(1–77)) (domain or fragment, UniProt Q13148 1-77, looked up)
chain: MSEYIRVTEDENDEPIEIPSEDDGTVLLSTVTAQFPGACGLRYRNPVSQCMRGVRLVEGILHAPDAGWGNLVYVVNY
notes: devoid of any tag; calculated mass 8.53 kDa; Cloning, expression and purification are told only in the Supplementary Materials; also called NTD TDP-43; wild-type protein; source: purified as described in the Supplementary Materials (>95% pure)
- stoichiometry N [1]: 2
- stoichiometry N [2]: 4
